The labels stand for the following.
B1: C. imbricata cAOS (cAOS-H4 domain) (Capnella imbricata) (protein)
chain: MTWKNFGFDIFAERFGKDKLEKRIKDERTPPPDSPVFGGLTLRMKIEKFKTLFTLGTTLKGFRRATHTVGTGGIGEVTVVDDPKFPEHEFFKAGRKLPVRLRHANLKYPDDAGADARSFSIKFSDNDSESPLDIVMNTGEANIFWHTSSLEDFVPVKEGDSAKEYVYKNPYYYYNLVEALRRAPNTFAHLYYYSQVTMHFKAKDGKERYCRYRAIPGDVDIKEEEESGRLTEEEQRNIWTFSRYETEKRPDDYLRKEYVERLKKGPVNYRLQIQIHDVSPNDTATIFHAGILWDKETHPWFDLAKVSITTPMSPDVLERTNFNIVNQPKSLGLLDAKSPEDYNSIGQIRVSVYNWVQHLRKLKLGSLIPAGQN
notes: N-terminal cAOS domain of the AOS-LOX fusion protein, without the LOX domain; cAOS-H4 (His4 tag) in pET11a; E. coli BL21(DE3), Ni-NTA; heme protein; monomer
B2: C. imbricata cAOS (cAOS-H4 domain) (Capnella imbricata; L150F) (protein)
chain: B1 chain with L150F
notes: as for B1
B3: C. imbricata cHPL (catalase-related hydroperoxide lyase domain) (Capnella imbricata; S177L/Y176N) (protein)
chain: MVWKNFGYEIFAEKFGKDELEKRIKDEHTAPPESPLFGSLKLKMKKEKFKILFTLRTTMEGFRRPTHTVATGGLGEITIVSDPKFPEHEFYRAGRKFPARLRHANLKLLDDAGSDARSFSIKFADNDSESPMDIVMNTGEANIFWNTSSFEDFVSSSAGESAAKEYVYKNPYYYYNLIEALRRAPETFAHLYYYSQLTMHFKAKDGKVRYCRYRAIPGDADIKEEEESGRLTEEEQRNVWIRSRHQNEKRPDDYLRKEYVERLGKGPVNYRLQIQIHEASPDDTATIFHAGIMWNKETHPWFDLAKVSIKTPLSPDVLERTSFNIVNQPESLGLLEAKSPEDYNSIGQIRVAVYKWIQHLRKLKVGSLVPTGQN
notes: N-terminal cHPL domain of the HPL-LOX fusion protein, without the LOX domain; cHPL-His4 in pET11a; E. coli BL21(DE3), Ni-NTA; heme protein; monomer 45 kDa plus oligomers 440-670 kDa
B4: C. imbricata cHPL (catalase-related hydroperoxide lyase domain) (Capnella imbricata; E60K/M59L) (protein)
chain: B3 chain with M59L, E60K, N176Y, L177S
notes: as for B3
B5: C. imbricata cHPL (catalase-related hydroperoxide lyase domain) (Capnella imbricata; F150L) (protein)
chain: B3 chain with F150L, N176Y, L177S
notes: as for B3
B6: C. imbricata cHPL (catalase-related hydroperoxide lyase domain) (Capnella imbricata; R56G) (protein)
chain: B3 chain with R56G, N176Y, L177S
notes: as for B3
B7: C. imbricata cHPL (catalase-related hydroperoxide lyase domain) (Capnella imbricata; P65A) (protein)
chain: B3 chain with P65A, N176Y, L177S
notes: as for B3
B8: C. imbricata cHPL (catalase-related hydroperoxide lyase domain) (Capnella imbricata; I357V) (protein)
chain: B3 chain with N176Y, L177S, I357V
notes: as for B3

Changes are numbered by the printed parent chain. Names may count otherwise.

Substrate in the first data set: CCCCC/C=C\C/C=C\C=C\[C@@H](C/C=C\CCCC(=O)O)OO
Kind of data set: purified protein. Format: biochemical, Capnella imbricata. The following applies: 50 mM Tris pH 8.0, 100 mM NaCl, 1 mM CaCl2, 20 °C, 5–50 μM substrate.
One may read the Km as the substrate concentration at which the rate is half of its maximum. As a reminder, the kcat is the maximal rate divided by the concentration of active sites. One may read the kcat/Km as the turnover number divided by the Michaelis constant. For the molecule B1, the Michaelis-Menten constant (Km) is 46.6 ± 9.0 µM, the catalytic constant (kcat) came to 1840 ± 196 s⁻¹ and the catalytic efficiency (kcat/Km) stood at 3.94e+07 M⁻¹ s⁻¹.

In the case of B2, the Km turned out to be 6.7 ± 1.0 µM, the turnover number (kcat) turned out to be 203 ± 8.1 s⁻¹ and the catalytic efficiency (kcat/Km) worked out at 3.03e+07 M⁻¹ s⁻¹.

With B3, the Km is 3.9 ± 0.9 µM, the turnover number (kcat) amounted to 218 ± 13.8 s⁻¹ and the specificity constant (kcat/Km) was 5.6e+07 M⁻¹ s⁻¹.

Turning to B4, the Michaelis constant (Km) is 7.3 ± 1.9 µM, the kcat was 7.5 ± 0.6 s⁻¹ and the kcat/Km came to 1e+06 M⁻¹ s⁻¹.

For B5, the Michaelis constant (Km) is 1.8 ± 0.4 µM, the catalytic constant (kcat) came out at 49.6 ± 1.5 s⁻¹ and the catalytic efficiency (kcat/Km) is 2.76e+07 M⁻¹ s⁻¹.

B6: the Michaelis-Menten constant (Km) turned out to be 19.0 ± 4.0 µM, the catalytic constant (kcat) was 304 ± 22.8 s⁻¹ and the catalytic efficiency (kcat/Km) was determined as 1.6e+07 M⁻¹ s⁻¹.

For the molecule B7, the Km is 15.3 ± 2.5 µM, the turnover number (kcat) was 40.3 ± 2.5 s⁻¹ and the catalytic efficiency (kcat/Km) stood at 2.6e+06 M⁻¹ s⁻¹.

In the case of B8, the Km was determined as 5.0 ± 1.0 µM, the kcat is 63.9 ± 3.2 s⁻¹ and the kcat/Km amounted to 1.28e+07 M⁻¹ s⁻¹.

The target in the next data set is T1, C. imbricata cHPL (catalase-related hydroperoxide lyase domain) (Capnella imbricata, UniProt W8JJ08).
T1 construct: gene AOS-LOXb; N-terminal cHPL domain of the HPL-LOX fusion protein, without the LOX domain; cHPL-His4 in pET11a; E. coli BL21(DE3), Ni-NTA; heme protein; monomer 45 kDa plus oligomers 440-670 kDa
T1 sequence (W8JJ08 entry or part of it): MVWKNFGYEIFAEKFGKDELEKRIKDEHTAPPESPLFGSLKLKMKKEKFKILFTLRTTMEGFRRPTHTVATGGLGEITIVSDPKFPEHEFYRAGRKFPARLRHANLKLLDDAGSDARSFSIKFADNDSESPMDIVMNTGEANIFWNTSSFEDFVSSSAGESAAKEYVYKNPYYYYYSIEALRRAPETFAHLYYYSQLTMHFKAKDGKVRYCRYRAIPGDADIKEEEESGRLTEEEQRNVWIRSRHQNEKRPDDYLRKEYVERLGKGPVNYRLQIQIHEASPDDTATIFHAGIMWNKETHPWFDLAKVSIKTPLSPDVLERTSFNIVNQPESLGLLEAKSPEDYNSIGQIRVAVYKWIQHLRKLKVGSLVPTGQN
Briefly: RP-HPLC radiometric product analysis. Format: biochemical. The note with it: 20 μM [1-14C]-AA-derived 8R-HpETE; labelled compound.
`CCCCC/C=C\C/C=C\C=C\[C@@H](C/C=C\CCCC(=O)O)OO` [8R-HpETE]: the “RP-HPLC radiometric product analysis” value is “Wt cHPL catalyzes the formation of C8-oxo acid and C12 aldehyde”.

Source of the values: publication PMC5617202, “Structural and functional insights into the reaction specificity of catalase-related hydroperoxide lyase: A shift from lyase activity to allene oxide synthase by site-directed mutagenesis” (PLoS ONE, 2017).
